Measured values reported in patent US20240034762A1 (YALE UNIVERSITY, published 2024).

T1: soluble extracellular domain of human α-Klotho (aa 1-980) fused to a 6xHis tag (human, UniProt Q9UEF7 34-980)
T1 construct: Secreted from HEK293 EBNA cells; also called sKLA; soluble α-Klotho
T1 sequence: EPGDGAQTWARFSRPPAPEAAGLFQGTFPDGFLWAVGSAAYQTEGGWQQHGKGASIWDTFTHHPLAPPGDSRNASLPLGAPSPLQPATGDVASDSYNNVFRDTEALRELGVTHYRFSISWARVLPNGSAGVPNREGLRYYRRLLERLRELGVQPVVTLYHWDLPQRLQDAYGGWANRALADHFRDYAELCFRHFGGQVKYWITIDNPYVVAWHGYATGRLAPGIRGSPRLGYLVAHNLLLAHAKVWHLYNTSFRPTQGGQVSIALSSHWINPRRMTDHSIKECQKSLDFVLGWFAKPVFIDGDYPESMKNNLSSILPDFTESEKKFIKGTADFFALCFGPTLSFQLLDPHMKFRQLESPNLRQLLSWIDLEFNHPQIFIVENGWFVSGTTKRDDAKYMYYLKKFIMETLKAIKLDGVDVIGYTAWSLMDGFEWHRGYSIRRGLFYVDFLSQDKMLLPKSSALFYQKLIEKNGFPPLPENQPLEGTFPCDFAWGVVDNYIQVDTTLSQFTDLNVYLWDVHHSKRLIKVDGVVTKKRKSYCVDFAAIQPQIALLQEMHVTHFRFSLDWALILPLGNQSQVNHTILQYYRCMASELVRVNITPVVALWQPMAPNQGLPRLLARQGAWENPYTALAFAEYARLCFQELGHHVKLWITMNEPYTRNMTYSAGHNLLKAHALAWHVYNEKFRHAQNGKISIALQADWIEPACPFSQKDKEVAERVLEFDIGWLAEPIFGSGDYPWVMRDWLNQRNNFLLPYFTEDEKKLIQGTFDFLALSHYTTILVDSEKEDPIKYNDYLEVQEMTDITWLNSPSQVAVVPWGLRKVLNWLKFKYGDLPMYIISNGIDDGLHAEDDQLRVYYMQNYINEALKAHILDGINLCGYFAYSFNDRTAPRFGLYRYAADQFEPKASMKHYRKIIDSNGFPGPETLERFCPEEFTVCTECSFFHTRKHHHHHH

T2: full-length human α-Klotho with a C-terminal HA-tag on HEK293 cells stably co-expressing FGFR1c (human, UniProt Q9UEF7 34-1012)
T2 sequence: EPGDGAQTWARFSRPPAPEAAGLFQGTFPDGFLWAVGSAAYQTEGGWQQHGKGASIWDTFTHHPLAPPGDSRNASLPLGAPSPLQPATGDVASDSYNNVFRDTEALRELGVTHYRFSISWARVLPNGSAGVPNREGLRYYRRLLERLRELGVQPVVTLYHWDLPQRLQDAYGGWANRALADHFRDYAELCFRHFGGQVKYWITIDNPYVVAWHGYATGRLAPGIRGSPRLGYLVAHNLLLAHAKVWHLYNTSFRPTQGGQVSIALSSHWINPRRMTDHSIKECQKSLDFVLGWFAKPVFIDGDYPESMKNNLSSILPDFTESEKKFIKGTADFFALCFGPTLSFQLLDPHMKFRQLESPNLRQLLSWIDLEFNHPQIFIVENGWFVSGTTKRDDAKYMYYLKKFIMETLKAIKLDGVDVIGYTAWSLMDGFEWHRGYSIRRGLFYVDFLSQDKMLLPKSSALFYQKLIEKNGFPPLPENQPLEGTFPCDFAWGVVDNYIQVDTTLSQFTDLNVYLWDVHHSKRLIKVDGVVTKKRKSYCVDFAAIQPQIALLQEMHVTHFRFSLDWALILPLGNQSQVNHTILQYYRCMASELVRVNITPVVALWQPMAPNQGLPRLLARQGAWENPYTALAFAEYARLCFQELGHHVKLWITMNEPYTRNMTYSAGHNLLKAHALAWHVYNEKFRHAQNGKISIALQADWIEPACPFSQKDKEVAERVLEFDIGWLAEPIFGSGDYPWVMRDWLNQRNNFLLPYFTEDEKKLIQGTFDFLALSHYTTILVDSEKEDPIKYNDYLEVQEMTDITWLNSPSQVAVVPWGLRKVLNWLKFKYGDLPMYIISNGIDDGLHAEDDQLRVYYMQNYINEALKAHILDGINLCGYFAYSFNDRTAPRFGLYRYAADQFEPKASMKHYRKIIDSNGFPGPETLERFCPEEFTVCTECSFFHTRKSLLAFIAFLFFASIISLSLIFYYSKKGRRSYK


Legend:
[1] = target: T1, soluble extracellular domain of human …; assay: BLI, FGF23 variant on the sensor, sKLA as analyte
[2] = target: T2, full-length human α-Klotho with a …; assay: cell-based or functional assay

Row | Binder | binding result [1] | activation of MAPK response in HEK293 cells co-expressing FGFR1c and α-Klotho; ligand concentration at saturation [2] [nM]
1 | human FGF23 D188A/D222A double mutant (ligand, also called D188A/D222A double mutations) DYKDDDDKYPNASPLLGSSWGGLIHLYTATARNSYHLQIHKNGHVDGAPHQTIYSALMIRSEDAGFVVITGVMSRRYLCMDFRGNIFGSHYFDPENCRFQHQTLENGYDVYHSPQYHFLVSLGAAKAAFLPGMNPPPYSQFLSRRNEIPLIHFNTPIPRQHTQSAEDDSERAPLNVLKPRARMTPAPASCSQELPSAEDNSPMASAPLGVVRGGRVNTHAGGTGPEGCRPFAKFI | no binding (tested: sKLA 6.25 nM to 200 nM) | –
2 | human FGF23-R1 (aa 25-205) expressed in E. coli (ligand) YPNASPLLGSSWGGLIHLYTATARNSYHLQIHKNGHVDGAPHQTIYSALMIRSEDAGFVVITGVMSRRYLCMDFRGNIFGSHYFDPENCRFQHQTLENGYDVYHSPQYHFLVSLGAAKAAFLPGMNPPPYSQFLSRRNEIPLIHFNTPIPRQHTQSAEDDSERDPLNVLKPRARMTPAPAS | – | 0.1
3 | human FGF23-R2 (aa 25-179 fused to aa 212-243) (ligand) YPNASPLLGSSWGGLIHLYTATARNSYHLQIHKNGHVDGAPHQTIYSALMIRSEDAGFVVITGVMSRRYLCMDFRGNIFGSHYFDPENCRFQHQTLENGYDVYHSPQYHFLVSLGAAKAAFLPGMNPPPYSQFLSRRNEIPLIHFNTPIPRQHTQSAEDNSPMASDPLGVVRGGRVNTHAGGTGPEG | – | 0.1
